Measurements reported in publication PMC8897274 (Structure (London, England : 1993), 2021).
Substitutions are numbered along the chain they refer to. Each block holds one binder with its values, some of them ahead of it.

Key:
[1] = target: T1, PCNA_(1–2-3) heterotrimer of S. solfataricus (S. solfataricus, UniProt P57766 1-249; Q97Z84 1-245; P57765 1-244); assay: SEC
T1 sequence 1: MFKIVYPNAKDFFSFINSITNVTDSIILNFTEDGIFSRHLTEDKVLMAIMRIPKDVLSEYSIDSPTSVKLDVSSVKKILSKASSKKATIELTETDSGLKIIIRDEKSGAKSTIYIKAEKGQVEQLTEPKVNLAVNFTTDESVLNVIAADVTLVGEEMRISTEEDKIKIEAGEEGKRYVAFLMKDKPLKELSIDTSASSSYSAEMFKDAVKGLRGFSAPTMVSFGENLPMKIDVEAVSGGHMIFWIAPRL
T1 sequence 2: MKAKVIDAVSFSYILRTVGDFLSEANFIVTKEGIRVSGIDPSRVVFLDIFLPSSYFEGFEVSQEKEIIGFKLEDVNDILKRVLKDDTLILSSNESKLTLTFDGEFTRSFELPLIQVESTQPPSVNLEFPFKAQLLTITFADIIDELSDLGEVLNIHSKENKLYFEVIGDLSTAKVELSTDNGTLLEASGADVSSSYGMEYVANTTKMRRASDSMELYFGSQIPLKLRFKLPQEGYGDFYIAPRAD
T1 sequence 3: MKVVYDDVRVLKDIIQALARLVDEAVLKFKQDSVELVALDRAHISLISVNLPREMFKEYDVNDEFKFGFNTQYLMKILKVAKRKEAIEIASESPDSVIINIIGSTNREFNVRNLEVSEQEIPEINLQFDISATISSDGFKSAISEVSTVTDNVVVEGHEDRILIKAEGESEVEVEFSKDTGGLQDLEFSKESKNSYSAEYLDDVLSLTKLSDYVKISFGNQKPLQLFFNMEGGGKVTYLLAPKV

[2] = target: T2, DNA ligase (Lig);PCNA1-PCNA2-PCNA3 heterotrimer (S. solfataricus;S. solfataricus, UniProt Q980T8;P57766;Q97Z84;P57765 1-601;1-249;1-245;1-244, |); assay: cryo-EM
T2 sequence 1: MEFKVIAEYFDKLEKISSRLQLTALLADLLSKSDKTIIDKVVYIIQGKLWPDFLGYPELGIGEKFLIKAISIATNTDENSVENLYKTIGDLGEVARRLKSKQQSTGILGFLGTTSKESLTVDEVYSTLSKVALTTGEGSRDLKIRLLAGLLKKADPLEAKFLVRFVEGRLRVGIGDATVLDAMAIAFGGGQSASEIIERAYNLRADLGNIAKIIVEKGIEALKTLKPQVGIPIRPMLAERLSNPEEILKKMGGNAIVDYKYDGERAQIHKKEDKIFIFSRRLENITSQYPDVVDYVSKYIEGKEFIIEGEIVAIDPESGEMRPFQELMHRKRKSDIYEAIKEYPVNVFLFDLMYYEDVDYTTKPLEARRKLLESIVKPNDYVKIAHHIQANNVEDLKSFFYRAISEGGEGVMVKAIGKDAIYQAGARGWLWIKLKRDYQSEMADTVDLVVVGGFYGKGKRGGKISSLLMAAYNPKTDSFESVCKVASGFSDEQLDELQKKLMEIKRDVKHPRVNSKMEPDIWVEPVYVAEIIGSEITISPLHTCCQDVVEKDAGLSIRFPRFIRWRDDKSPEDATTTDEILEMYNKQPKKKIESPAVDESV
T2 sequence 2: T1 sequence 1
T2 sequence 3: T1 sequence 2
T2 sequence 4: T1 sequence 3

[3] = target: T2, DNA ligase (Lig);PCNA1-PCNA2-PCNA3 …; assay: gel filtration co-elution
[4] = target: T2, DNA ligase (Lig);PCNA1-PCNA2-PCNA3 …; assay: cryo-EM; remark: listed apart in the source
[5] = target: T2, DNA ligase (Lig);PCNA1-PCNA2-PCNA3 …; assay: cryo-EM; remark: listed apart in the source

binding result [1]: binds
B1: Lig 103/107 QI-AA mutant (enzyme, S. solfataricus)
chain: T2 sequence 1 with Q103A, I107A

B2: 47 bp 3'dideoxy nicked DNA (dsDNA)
DNA 1: GTATCCTCGTAGTGCAGATGCGTC
DNA 2: GTCGGACTGATTCGGTAGATCTG
DNA 3: CAGATCTACCGAATCAGTCCGACGACGCATCTGCACTACGAGGATAC
modifications: 3'-dideoxy terminus of upstream strand; 5'PO4 on downstream strand
binding result [2]: binds

B3: 47 bp ligatable nicked DNA (dsDNA)
DNA 1: GTATCCTCGTAGTGCAGATGCGTC
DNA 2: GTCGGACTGATTCGGTAGATCTG
DNA 3: B2 DNA 3
modifications: 5'PO4 on downstream strand; 3'OH at nick
binding result [3]: binds

B4: 47 bp end-joined duplex DNA (dsDNA)
DNA 1: GTATCCTCGTAGTGCAGATGCGTCGTCGGACTGATTCGGTAGATCTG
DNA 2: B2 DNA 3
binding result [4]: binds

B5: 47 bp nicked DNA, 5'-adenylated (AppDNA) (dsDNA)
DNA 1: GTATCCTCGTAGTGCAGATGCGTC
DNA 2: GTCGGACTGATTCGGTAGATCTG
DNA 3: B2 DNA 3
modifications: 5'-App (adenylated 5'PO4) on downstream strand; 3'OH at nick
binding result [5]: binds
